Results published in patent US20260049138A1 (Chugai, published 2026).
Positions count from the first letter of the chain named. Names may count otherwise.

B1: CE115HA000 G100bF one-arm antibody (antibody, human IgG1, kappa, L234A L235A, N297A, name in Kabat numbering)
heavy: QVQLVESGGGVVQPGRSLRLSCAASGFTFSNAWMHWVRQAPGKGLEWVAQIKAKSNNYATYYAESVKGRFTISRDDSKNSLYLQMNSLKTEDTAVYYCRYVHYGAYYFVDAWGQGTTVTVSSASTKGPSVFPLAPSSKSTSGGTAALGCLVKDYFPEPVTVSWNSGALTSGVHTFPAVLQSSGLYSLSSVVTVPSSSLGTQTYICNVNHKPSNTKVDKKVEPKSCDKTHTCPPCPAPEAAGGPSVFLFPPKPKDTLMISRTPEVTCVVVDVSHEDPEVKFNWYVDGVEVHNAKTKPREEQYASTYRVVSVLTVLHQDWLNGKEYKCKVSNKALPAPIEKTISKAKGQPREPQVYTLPPSRCELTKNQVSLSCAVKGFYPSDIAVEWESNGQPENNYKTTPPVLDSDGSFFLVSKLTVDKSRWQQGNVFSCSVMHEALHNHYTQKSLSLSPDYKDDDDK
chain: EPKSSDKTHTCPPCPAPELLGGPSVFLFPPKPKDTLMISRTPEVTCVVVDVSHEDPEVKFNWYVDGVEVHNAKTKPREEQYNSTYRVVSVLTVLHQDWLNGKEYKCKVSNKALPAPIEKTISKAKGQPREPQVCTLPPSRDELTKNQVSLWCLVKGFYPSDIAVEWESNGQPENNYKTTPPVLDSDGSFFLYSKLTVDKSRWQQGNVFSCSVMHEALHNRYTQKSLSLSP
light: DIVMTQSPLSLPVTPGEPASISCRSSQSLVHSNRNTYLHWYQQKPGQAPRLLIYKVSNRFSGVPDRFSGSGSGTDFTLKISRVEAEDVGVYYCGQGTQVPYTFGQGTKLEIKRTVAAPSVFIFPPSDEQLKSGTASVVCLLNNFYPREAKVQWKVDNALQSGNSQESVTEQDSKDSTYSLSSTLTLSKADYEKHKVYACEVTHQGLSSPVTKSFNRGEC
B2: CE115HA000 H96G one-arm antibody (antibody, human IgG1, kappa, L234A L235A, N297A, name in Kabat numbering)
heavy: B1 heavy with H102G, F108G
chain: B1 chain
light: B1 light
B3: CE115HA000 G100bS one-arm antibody (antibody, human IgG1, kappa, L234A L235A, N297A, name in Kabat numbering)
heavy: B1 heavy with F108S
chain: B1 chain
light: B1 light
B4: CE115HA000 H35I one-arm antibody (antibody, human IgG1, kappa, L234A L235A, N297A, name in Kabat numbering)
heavy: B1 heavy with H35I, F108G
chain: B1 chain
light: B1 light
B5: CE115HA000 H35D one-arm antibody (antibody, human IgG1, kappa, L234A L235A, N297A, name in Kabat numbering)
heavy: B1 heavy with H35D, F108G
chain: B1 chain
light: B1 light
B6: CE115HA000 H35Y one-arm antibody (antibody, human IgG1, kappa, L234A L235A, N297A, name in Kabat numbering)
heavy: B1 heavy with H35Y, F108G
chain: B1 chain
light: B1 light
B7: CE115HA000 H35E one-arm antibody (antibody, human IgG1, kappa, L234A L235A, N297A, name in Kabat numbering)
heavy: B1 heavy with H35E, F108G
chain: B1 chain
light: B1 light
B8: CE115HA000 G100bL one-arm antibody (antibody, human IgG1, kappa, L234A L235A, N297A, name in Kabat numbering)
heavy: B1 heavy with F108L
chain: B1 chain
light: B1 light
B9: CE115HA000 H35N one-arm antibody (antibody, human IgG1, kappa, L234A L235A, N297A, name in Kabat numbering)
heavy: B1 heavy with H35N, F108G
chain: B1 chain
light: B1 light
B10: CE115HA000 H35M one-arm antibody (antibody, human IgG1, kappa, L234A L235A, N297A, name in Kabat numbering)
heavy: B1 heavy with H35M, F108G
chain: B1 chain
light: B1 light
B11: CE115HA000 H35L one-arm antibody (antibody, human IgG1, kappa, L234A L235A, N297A, name in Kabat numbering)
heavy: B1 heavy with H35L, F108G
chain: B1 chain
light: B1 light
B12: CE115HA000 H35W one-arm antibody (antibody, human IgG1, kappa, L234A L235A, N297A, name in Kabat numbering)
heavy: B1 heavy with H35W, F108G
chain: B1 chain
light: B1 light
B13: CE115HA000 H35S one-arm antibody (antibody, human IgG1, kappa, L234A L235A, N297A, name in Kabat numbering)
heavy: B1 heavy with H35S, F108G
chain: B1 chain
light: B1 light
B14: CE115HA000 H35F one-arm antibody (antibody, human IgG1, kappa, L234A L235A, N297A, name in Kabat numbering)
heavy: B1 heavy with H35F, F108G
chain: B1 chain
light: B1 light
B15: CE115HA000 H35R one-arm antibody (antibody, human IgG1, kappa, L234A L235A, N297A, name in Kabat numbering)
heavy: B1 heavy with H35R, F108G
chain: B1 chain
light: B1 light
B16: CE115HA000 H35Q one-arm antibody (antibody, human IgG1, kappa, L234A L235A, N297A, name in Kabat numbering)
heavy: B1 heavy with H35Q, F108G
chain: B1 chain
light: B1 light
B17: CE115HA000 H96K one-arm antibody (antibody, human IgG1, kappa, L234A L235A, N297A, name in Kabat numbering)
heavy: B1 heavy with H102K, F108G
chain: B1 chain
light: B1 light
B18: CE115HA000 G100bY one-arm antibody (antibody, human IgG1, kappa, L234A L235A, N297A, name in Kabat numbering)
heavy: B1 heavy with F108Y
chain: B1 chain
light: B1 light
B19: CE115HA000 H35T one-arm antibody (antibody, human IgG1, kappa, L234A L235A, N297A, name in Kabat numbering)
heavy: B1 heavy with H35T, F108G
chain: B1 chain
light: B1 light
B20: CE115HA000 H35V one-arm antibody (antibody, human IgG1, kappa, L234A L235A, N297A, name in Kabat numbering)
heavy: B1 heavy with H35V, F108G
chain: B1 chain
light: B1 light
B21: CE115HA000 H35G one-arm antibody (antibody, human IgG1, kappa, L234A L235A, N297A, name in Kabat numbering)
heavy: B1 heavy with H35G, F108G
chain: B1 chain
light: B1 light
B22: CE115HA000 H35K one-arm antibody (antibody, human IgG1, kappa, L234A L235A, N297A, name in Kabat numbering)
heavy: B1 heavy with H35K, F108G
chain: B1 chain
light: B1 light

Each binder was assayed against T1, CD3ε homodimer protein (human, UniProt P07766 23-126, limits assumed, sulfo-tag or biotin label in the ECL assays; amine-coupled to the chip in SPR) (assay: SPR Biacore T200; CD3ε homodimer on CM4 chip;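 note: Single-residue variant antibodies injected as analyte over CD3ε homodimer immobilized by amine coupling, run at 25 °C in HBS-EP+ buffer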).
T1 construct: also called human CD3ε homodimer protein; CD3 (CD3ε)
T1 sequence (P07766 23-126 limits assumed): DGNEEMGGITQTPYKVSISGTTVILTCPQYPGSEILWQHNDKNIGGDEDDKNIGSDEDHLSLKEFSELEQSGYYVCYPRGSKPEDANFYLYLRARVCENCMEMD

| ratio of amounts bound Z=Y/X (altered form / CE115HA000) | Binder |
| --- | --- |
| 0.3 | B1 |
| 0.43 | B2 |
| 0.52 | B3 |
| 0.12 | B4 |
| 0.2 | B5 |
| 0.16 | B6 |
| 0.19 | B7 |
| 0.27 | B8 |
| 0.35 | B9 |
| 0.29 | B10 |
| 0.11 | B11 |
| 0.22 | B12 |
| 0.23 | B13 |
| 0.21 | B14 |
| 0.14 | B15 |
| 0.13 | B16 |
| 0.35 | B17 |
| 0.23 | B18 |
| 0.26 | B19 |
| 0.22 | B20 |
| 0.22 | B21 |
| 0.15 | B22 |
